Measured values from PMC5549332 (BMC Plant Biology, 2017).

T1: GLO3 (Oryza sativa, UniProt Q7FAS1)
T1 construct: complete ORF, N-terminal 6xHis tag kept, expressed in Saccharomyces cerevisiae INVSc1, Ni-IDA purified, subunit about 40 kDa
T1 sequence (Q7FAS1 1-367): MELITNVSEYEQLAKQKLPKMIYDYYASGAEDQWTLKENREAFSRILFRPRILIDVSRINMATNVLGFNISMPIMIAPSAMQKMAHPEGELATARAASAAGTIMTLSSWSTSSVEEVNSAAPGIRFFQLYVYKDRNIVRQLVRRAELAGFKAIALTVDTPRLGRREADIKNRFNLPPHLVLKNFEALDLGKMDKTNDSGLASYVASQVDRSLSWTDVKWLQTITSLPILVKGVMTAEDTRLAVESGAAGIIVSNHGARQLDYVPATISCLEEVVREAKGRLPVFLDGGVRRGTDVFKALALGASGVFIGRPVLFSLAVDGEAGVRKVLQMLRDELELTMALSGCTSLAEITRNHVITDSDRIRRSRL

T2: GLO4 (Oryza sativa, UniProt Q6YT73)
T2 construct: gene GLO5; complete ORF, N-terminal 6xHis tag kept, expressed in Saccharomyces cerevisiae INVSc1, Ni-IDA purified, subunit about 40 kDa, homo-oligomer; GLO4/GLO5 names may be swapped in databases, go by printed locus
T2 sequence (Q6YT73 1-369): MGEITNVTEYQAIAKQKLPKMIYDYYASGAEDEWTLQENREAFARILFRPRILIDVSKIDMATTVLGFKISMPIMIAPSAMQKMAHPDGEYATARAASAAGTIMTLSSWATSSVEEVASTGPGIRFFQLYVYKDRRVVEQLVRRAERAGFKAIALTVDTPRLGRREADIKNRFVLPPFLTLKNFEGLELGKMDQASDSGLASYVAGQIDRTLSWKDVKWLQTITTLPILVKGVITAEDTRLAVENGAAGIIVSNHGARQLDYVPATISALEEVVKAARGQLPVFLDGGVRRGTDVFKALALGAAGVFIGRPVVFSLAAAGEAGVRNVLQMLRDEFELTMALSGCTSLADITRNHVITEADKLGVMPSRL

T3: GLO1 + 4 (Oryza sativa, UniProt Q10CE4+Q6YT73)
T3 construct: co-expressed N-terminally 6xHis-tagged GLO1 (pYES3) and GLO4 (pYES2) in Saccharomyces cerevisiae, Ni-IDA purified; GLO4/GLO5 names may be swapped in databases
T3 sequence (Q10CE4 1-369): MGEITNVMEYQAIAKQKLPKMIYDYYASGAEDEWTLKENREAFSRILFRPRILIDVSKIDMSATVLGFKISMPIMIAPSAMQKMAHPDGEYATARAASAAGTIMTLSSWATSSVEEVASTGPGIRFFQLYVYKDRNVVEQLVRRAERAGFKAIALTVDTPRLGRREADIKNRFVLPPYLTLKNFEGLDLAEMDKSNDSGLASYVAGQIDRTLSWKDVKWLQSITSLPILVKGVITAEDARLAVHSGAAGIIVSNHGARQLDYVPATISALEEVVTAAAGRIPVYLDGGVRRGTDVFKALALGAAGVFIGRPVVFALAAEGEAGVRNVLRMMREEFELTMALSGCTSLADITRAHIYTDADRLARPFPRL
T3 sequence (Q6YT73 1-369): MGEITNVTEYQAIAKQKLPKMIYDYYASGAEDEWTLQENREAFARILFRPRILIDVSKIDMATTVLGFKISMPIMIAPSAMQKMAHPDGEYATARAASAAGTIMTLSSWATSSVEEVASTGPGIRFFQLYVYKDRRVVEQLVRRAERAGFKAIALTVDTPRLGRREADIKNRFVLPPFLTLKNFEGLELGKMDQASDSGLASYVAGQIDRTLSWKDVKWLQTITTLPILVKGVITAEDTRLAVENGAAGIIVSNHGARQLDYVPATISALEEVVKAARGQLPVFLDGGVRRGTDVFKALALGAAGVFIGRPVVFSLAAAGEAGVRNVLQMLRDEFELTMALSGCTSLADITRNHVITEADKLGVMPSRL

T4: GLO1 (Oryza sativa, UniProt Q10CE4)
T4 construct: complete ORF, N-terminal 6xHis tag kept, expressed in Saccharomyces cerevisiae INVSc1, Ni-IDA purified, subunit about 40 kDa, homo-oligomer
T4 sequence (Q10CE4 1-369): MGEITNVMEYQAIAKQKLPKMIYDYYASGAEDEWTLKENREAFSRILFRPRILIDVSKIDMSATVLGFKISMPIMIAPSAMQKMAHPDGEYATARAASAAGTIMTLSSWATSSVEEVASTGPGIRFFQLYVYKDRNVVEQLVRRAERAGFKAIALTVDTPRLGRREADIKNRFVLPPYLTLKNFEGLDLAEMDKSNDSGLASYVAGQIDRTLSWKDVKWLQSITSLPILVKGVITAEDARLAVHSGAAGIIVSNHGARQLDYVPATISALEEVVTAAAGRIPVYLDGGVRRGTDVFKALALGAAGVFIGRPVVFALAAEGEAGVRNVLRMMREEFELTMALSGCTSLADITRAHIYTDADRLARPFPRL


Assays:
GLO3 = biological target: T1, GLO3; experiment: peroxidase-coupled H2O2 assay, […] nm; slope replot of Lineweaver-Burk; assay type: biochemical
GLO4 = biological target: T2, GLO4; experiment: as above; assay type: biochemical
GLO1 + 4 = biological target: T3, GLO1 + 4; experiment: as above; assay type: biochemical
GLO1 = biological target: T4, GLO1; experiment: as above; assay type: biochemical
purified protein [1] = substrate: O=C(O)CO; experiment: purified protein; details: pH 7.8, 30 °C, 0.1 mM FMN
purified protein [2] = substrate: C[C@H](O)C(=O)O; experiment: purified protein; details: pH 7.8, 30 °C, 0.1 mM FMN
purified protein [3] = substrate: O=CC(=O)O; experiment: purified protein; assay type: biochemical, Oryza sativa; details: pH 7.8, 30 °C, 0.1 mM FMN
purified protein [4] = substrate: O=C(O)[C@H](O)CO; experiment: purified protein; assay type: biochemical, Oryza sativa; details: pH 7.8, 30 °C, 0.1 mM FMN

Row | Ki (GLO3) | Ki (GLO4) | Ki (GLO1 + 4) | Ki (GLO1) | Molecule | Km (purified protein [1]) | Km (purified protein [2]) | Km (purified protein [3]) | Km (purified protein [4])
1 | 5.6 ± 1.23 mM | 6.34 ± 1.74 mM | 5.49 ± 1.04 mM | 4.57 ± 0.93 mM | O=C(O)C(=O)O [oxalate] | – | – | – | –
2 | – | – | – | – | GLO1 (Oryza sativa Japonica Group) (protein, complete ORF, N-terminal 6xHis tag kept, expressed in Saccharomyces cerevisiae INVSc1, Ni-IDA purified, subunit about 40 kDa, homo-oligomer) MGEITNVMEYQAIAKQKLPKMIYDYYASGAEDEWTLKENREAFSRILFRPRILIDVSKIDMSATVLGFKISMPIMIAPSAMQKMAHPDGEYATARAASAAGTIMTLSSWATSSVEEVASTGPGIRFFQLYVYKDRNVVEQLVRRAERAGFKAIALTVDTPRLGRREADIKNRFVLPPYLTLKNFEGLDLAEMDKSNDSGLASYVAGQIDRTLSWKDVKWLQSITSLPILVKGVITAEDARLAVHSGAAGIIVSNHGARQLDYVPATISALEEVVTAAAGRIPVYLDGGVRRGTDVFKALALGAAGVFIGRPVVFALAAEGEAGVRNVLRMMREEFELTMALSGCTSLADITRAHIYTDADRLARPFPRL | 0.499 ± 0.041 mM | 5.128 ± 0.315 mM | 6.505 ± 0.412 mM | 4.976 ± 0.305 mM
3 | – | – | – | – | GLO1 + 4 (Oryza sativa Japonica Group) (protein, co-expressed N-terminally 6xHis-tagged GLO1 (pYES3) and GLO4 (pYES2) in Saccharomyces cerevisiae, Ni-IDA purified; GLO4/GLO5 names may be swapped in databases) chain 1: MGEITNVMEYQAIAKQKLPKMIYDYYASGAEDEWTLKENREAFSRILFRPRILIDVSKIDMSATVLGFKISMPIMIAPSAMQKMAHPDGEYATARAASAAGTIMTLSSWATSSVEEVASTGPGIRFFQLYVYKDRNVVEQLVRRAERAGFKAIALTVDTPRLGRREADIKNRFVLPPYLTLKNFEGLDLAEMDKSNDSGLASYVAGQIDRTLSWKDVKWLQSITSLPILVKGVITAEDARLAVHSGAAGIIVSNHGARQLDYVPATISALEEVVTAAAGRIPVYLDGGVRRGTDVFKALALGAAGVFIGRPVVFALAAEGEAGVRNVLRMMREEFELTMALSGCTSLADITRAHIYTDADRLARPFPRL chain 2: MGEITNVTEYQAIAKQKLPKMIYDYYASGAEDEWTLQENREAFARILFRPRILIDVSKIDMATTVLGFKISMPIMIAPSAMQKMAHPDGEYATARAASAAGTIMTLSSWATSSVEEVASTGPGIRFFQLYVYKDRRVVEQLVRRAERAGFKAIALTVDTPRLGRREADIKNRFVLPPFLTLKNFEGLELGKMDQASDSGLASYVAGQIDRTLSWKDVKWLQTITTLPILVKGVITAEDTRLAVENGAAGIIVSNHGARQLDYVPATISALEEVVKAARGQLPVFLDGGVRRGTDVFKALALGAAGVFIGRPVVFSLAAAGEAGVRNVLQMLRDEFELTMALSGCTSLADITRNHVITEADKLGVMPSRL | 0.423 ± 0.038 mM | 5.227 ± 0.448 mM | 4.883 ± 0.321 mM | 4.511 ± 0.307 mM
4 | – | – | – | – | GLO3 (Oryza sativa Japonica Group) (protein, complete ORF, N-terminal 6xHis tag kept, expressed in Saccharomyces cerevisiae INVSc1, Ni-IDA purified, subunit about 40 kDa) MELITNVSEYEQLAKQKLPKMIYDYYASGAEDQWTLKENREAFSRILFRPRILIDVSRINMATNVLGFNISMPIMIAPSAMQKMAHPEGELATARAASAAGTIMTLSSWSTSSVEEVNSAAPGIRFFQLYVYKDRNIVRQLVRRAELAGFKAIALTVDTPRLGRREADIKNRFNLPPHLVLKNFEALDLGKMDKTNDSGLASYVASQVDRSLSWTDVKWLQTITSLPILVKGVMTAEDTRLAVESGAAGIIVSNHGARQLDYVPATISCLEEVVREAKGRLPVFLDGGVRRGTDVFKALALGASGVFIGRPVLFSLAVDGEAGVRKVLQMLRDELELTMALSGCTSLAEITRNHVITDSDRIRRSRL | 0.470 ± 0.035 mM | 1.104 ± 0.056 mM | 1.799 ± 0.084 mM | 2.762 ± 0.311 mM
5 | – | – | – | – | GLO4 (Oryza sativa Japonica Group) (protein, complete ORF, N-terminal 6xHis tag kept, expressed in Saccharomyces cerevisiae INVSc1, Ni-IDA purified, subunit about 40 kDa, homo-oligomer; GLO4/GLO5 names may be swapped in databases, go by printed locus) MGEITNVTEYQAIAKQKLPKMIYDYYASGAEDEWTLQENREAFARILFRPRILIDVSKIDMATTVLGFKISMPIMIAPSAMQKMAHPDGEYATARAASAAGTIMTLSSWATSSVEEVASTGPGIRFFQLYVYKDRRVVEQLVRRAERAGFKAIALTVDTPRLGRREADIKNRFVLPPFLTLKNFEGLELGKMDQASDSGLASYVAGQIDRTLSWKDVKWLQTITTLPILVKGVITAEDTRLAVENGAAGIIVSNHGARQLDYVPATISALEEVVKAARGQLPVFLDGGVRRGTDVFKALALGAAGVFIGRPVVFSLAAAGEAGVRNVLQMLRDEFELTMALSGCTSLADITRNHVITEADKLGVMPSRL | 0.613 ± 0.050 mM | 4.720 ± 0.291 mM | 5.983 ± 0.333 mM | 4.367 ± 0.395 mM
